Biological target: ETV1 (ER81) 249-477 (UniProt P50549 249-477)
Assay: EMSA

ETV1 (ER81) 249-477, sequence (P50549 249-477): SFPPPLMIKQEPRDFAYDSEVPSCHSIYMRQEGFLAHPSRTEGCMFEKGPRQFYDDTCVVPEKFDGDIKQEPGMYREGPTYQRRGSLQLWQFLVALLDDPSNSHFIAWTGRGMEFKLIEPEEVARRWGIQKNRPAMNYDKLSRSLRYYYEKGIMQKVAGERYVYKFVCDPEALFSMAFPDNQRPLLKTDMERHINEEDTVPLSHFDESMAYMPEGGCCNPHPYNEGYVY

B1: ETS8/9 (PSA enhancer) (dsDNA)
DNA 1: CTTTACAAACATCCTTGAAACAACAATCCAGAA
DNA 2: TTCTGGATTGTTGTTTCAAGGATGTTTGTAA
  binding result: binds

Source: PMC3947560
